In paper PMC2937010 one finds stoichiometry N data, which are given here for 1 substance.

This test addresses RMI1 OB2 domain (C-terminal OB fold of RMI1, residues 473-625) (human) (UniProt Q9H9A7). Briefly: SEC.

Take “RMI2 (RMI core complex, wild type) (natural protein)”: the stoichiometry N was determined as 1.
